In patent US20220040297A1 (Chugai, published 2022):
Numbering of substitutions follows the chain as printed.

B1: GLS3000 H27dF (antibody, name in Kabat numbering, V domains shown)
VH: QVQLVESGGGVVQPGRSLRLSCAASGFTFSNAWMHWVRQAPGKGLEWVAQIKAKSNNYATYYAESVKGRFTISRDDSKNSLYLQMNSLKTEDTAVYYCRYVHYGAYYGVDAWGQGTTVTVSS
VL: DIVMTQSPLSLPVTPGEPASISCRSSQSLVFSNRNTYLHWYQQKPGQAPRLLIYKVSNRFSGVPDRFSGSGSGTDFTLKISRVEAEDVGVYYCGQGTQVPYTFGQGTKLEIK
notes: one-arm format as m2
B2: GLS3000 K50P (antibody, name in Kabat numbering, V domains shown)
VH: B1 VH
VL: B1 VL with F31H, K55P
notes: one-arm format as m2
B3: GLS3000 H27dN (antibody, name in Kabat numbering, V domains shown)
VH: B1 VH
VL: B1 VL with F31N
notes: one-arm format as m2
B4: GLS3000 H27dK (antibody, name in Kabat numbering, V domains shown)
VH: B1 VH
VL: B1 VL with F31K
notes: one-arm format as m2
B5: GLS3000 H34M (antibody, name in Kabat numbering, V domains shown)
VH: B1 VH
VL: B1 VL with F31H, H39M
notes: one-arm format as m2
B6: GLS3000 H34D (antibody, name in Kabat numbering, V domains shown)
VH: B1 VH
VL: B1 VL with F31H, H39D
notes: one-arm format as m2
B7: GLS3000 K50G (antibody, name in Kabat numbering, V domains shown)
VH: B1 VH
VL: B1 VL with F31H, K55G
notes: one-arm format as m2
B8: GLS3000 H27dI (antibody, name in Kabat numbering, V domains shown)
VH: B1 VH
VL: B1 VL with F31I
notes: one-arm format as m2
B9: GLS3000 H34R (antibody, name in Kabat numbering, V domains shown)
VH: B1 VH
VL: B1 VL with F31H, H39R
notes: one-arm format as m2
B10: GLS3000 H34W (antibody, name in Kabat numbering, V domains shown)
VH: B1 VH
VL: B1 VL with F31H, H39W
notes: one-arm format as m2
B11: GLS3000 K50S (antibody, name in Kabat numbering, V domains shown)
VH: B1 VH
VL: B1 VL with F31H, K55S
notes: one-arm format as m2
B12: GLS3000 H34A (antibody, name in Kabat numbering, V domains shown)
VH: B1 VH
VL: B1 VL with F31H, H39A
notes: one-arm format as m2
B13: GLS3000 H34I (antibody, name in Kabat numbering, V domains shown)
VH: B1 VH
VL: B1 VL with F31H, H39I
notes: one-arm format as m2
B14: GLS3000 H27dQ (antibody, name in Kabat numbering, V domains shown)
VH: B1 VH
VL: B1 VL with F31Q
notes: one-arm format as m2
B15: GLS3000 H27dT (antibody, name in Kabat numbering, V domains shown)
VH: B1 VH
VL: B1 VL with F31T
notes: one-arm format as m2
B16: GLS3000 H27dS (antibody, name in Kabat numbering, V domains shown)
VH: B1 VH
VL: B1 VL with F31S
notes: one-arm format as m2
B17: GLS3000 H34Q (antibody, name in Kabat numbering, V domains shown)
VH: B1 VH
VL: B1 VL with F31H, H39Q
notes: one-arm format as m2
B18: GLS3000 L27bD (antibody, name in Kabat numbering, V domains shown)
VH: B1 VH
VL: B1 VL with L29D, F31H
notes: one-arm format as m2
B19: GLS3000 H34V (antibody, name in Kabat numbering, V domains shown)
VH: B1 VH
VL: B1 VL with F31H, H39V
notes: one-arm format as m2
B20: GLS3000 H34S (antibody, name in Kabat numbering, V domains shown)
VH: B1 VH
VL: B1 VL with F31H, H39S
notes: one-arm format as m2
B21: GLS3000 H34F (antibody, name in Kabat numbering, V domains shown)
VH: B1 VH
VL: B1 VL with F31H, H39F
notes: one-arm format as m2
B22: GLS3000 H27dG (antibody, name in Kabat numbering, V domains shown)
VH: B1 VH
VL: B1 VL with F31G
notes: one-arm format as m2
B23: GLS3000 H34N (antibody, name in Kabat numbering, V domains shown)
VH: B1 VH
VL: B1 VL with F31H, H39N
notes: one-arm format as m2
B24: GLS3000 K50E (antibody, name in Kabat numbering, V domains shown)
VH: B1 VH
VL: B1 VL with F31H, K55E
notes: one-arm format as m2
B25: GLS3000 K50Q (antibody, name in Kabat numbering, V domains shown)
VH: B1 VH
VL: B1 VL with F31H, K55Q
notes: one-arm format as m2
B26: GLS3000 H34T (antibody, name in Kabat numbering, V domains shown)
VH: B1 VH
VL: B1 VL with F31H, H39T
notes: one-arm format as m2
B27: GLS3000 K50L (antibody, name in Kabat numbering, V domains shown)
VH: B1 VH
VL: B1 VL with F31H, K55L
notes: one-arm format as m2
B28: GLS3000 H34P (antibody, name in Kabat numbering, V domains shown)
VH: B1 VH
VL: B1 VL with F31H, H39P
notes: one-arm format as m2
B29: GLS3000 H34K (antibody, name in Kabat numbering, V domains shown)
VH: B1 VH
VL: B1 VL with F31H, H39K
notes: one-arm format as m2
B30: GLS3000 H27dR (antibody, name in Kabat numbering, V domains shown)
VH: B1 VH
VL: B1 VL with F31R
notes: one-arm format as m2
B31: GLS3000 H27dY (antibody, name in Kabat numbering, V domains shown)
VH: B1 VH
VL: B1 VL with F31Y
notes: one-arm format as m2
B32: GLS3000 K74T (antibody, name in Kabat numbering, V domains shown)
VH: B1 VH
VL: B1 VL with F31H, K79T
notes: one-arm format as m2
B33: GLS3000 K50A (antibody, name in Kabat numbering, V domains shown)
VH: B1 VH
VL: B1 VL with F31H, K55A
notes: one-arm format as m2
B34: GLS3000 H27dP (antibody, name in Kabat numbering, V domains shown)
VH: B1 VH
VL: B1 VL with F31P
notes: one-arm format as m2
B35: GLS3000 H34L (antibody, name in Kabat numbering, V domains shown)
VH: B1 VH
VL: B1 VL with F31H, H39L
notes: one-arm format as m2
B36: GLS3000 H34E (antibody, name in Kabat numbering, V domains shown)
VH: B1 VH
VL: B1 VL with F31H, H39E
notes: one-arm format as m2
B37: GLS3000 K50T (antibody, name in Kabat numbering, V domains shown)
VH: B1 VH
VL: B1 VL with F31H, K55T
notes: one-arm format as m2
B38: GLS3000 K107E (antibody, name in Kabat numbering, V domains shown)
VH: B1 VH
VL: B1 VL with F31H, K112E
notes: one-arm format as m2
B39: GLS3000 H27dV (antibody, name in Kabat numbering, V domains shown)
VH: B1 VH
VL: B1 VL with F31V
notes: one-arm format as m2
B40: GLS3000 K50R (antibody, name in Kabat numbering, V domains shown)
VH: B1 VH
VL: B1 VL with F31H, K55R
notes: one-arm format as m2
B41: GLS3000 H27dW (antibody, name in Kabat numbering, V domains shown)
VH: B1 VH
VL: B1 VL with F31W
notes: one-arm format as m2
B42: GLS3000 H34Y (antibody, name in Kabat numbering, V domains shown)
VH: B1 VH
VL: B1 VL with F31H, H39Y
notes: one-arm format as m2
B43: GLS3000 H34G (antibody, name in Kabat numbering, V domains shown)
VH: B1 VH
VL: B1 VL with F31H, H39G
notes: one-arm format as m2
B44: GLS3000 H27dL (antibody, name in Kabat numbering, V domains shown)
VH: B1 VH
VL: B1 VL with F31L
notes: one-arm format as m2
B45: GLS3000 K50Y (antibody, name in Kabat numbering, V domains shown)
VH: B1 VH
VL: B1 VL with F31H, K55Y
notes: one-arm format as m2
B46: GLS3000 K50D (antibody, name in Kabat numbering, V domains shown)
VH: B1 VH
VL: B1 VL with F31H, K55D
notes: one-arm format as m2

molecular target: CD3ε homodimer protein (human, UniProt P07766 23-126, limits assumed); experiment: SPR, immobilized CD3ε homodimer;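 further: biacore T200 surface plasmon resonance at 25 °C, antibody variants flowed as analytes over amine-coupled CD3ε homodimer on a CM4 chip, variant binding amount divided by that of GLS3000 antibody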
Sequence (P07766 23-126 limits assumed): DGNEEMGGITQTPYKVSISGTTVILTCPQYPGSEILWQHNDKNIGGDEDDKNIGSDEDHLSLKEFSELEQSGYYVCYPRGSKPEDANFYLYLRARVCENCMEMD

| ratio of amounts bound (vs GLS3000) | Binder |
| --- | --- |
| 0.63 | B1 |
| 0.3 | B2 |
| 0.3 | B3 |
| 0.29 | B4 |
| 0.35 | B5 |
| 0.22 | B6 |
| 0.16 | B7 |
| 0.26 | B8 |
| 0.2 | B9 |
| 0.21 | B10 |
| 0.23 | B11 |
| 1.06 | B12 |
| 0.65 | B13 |
| 0.25 | B14 |
| 0.29 | B15 |
| 0.32 | B16 |
| 0.25 | B17 |
| 0.17 | B18 |
| 0.85 | B19 |
| 0.78 | B20 |
| 0.27 | B21 |
| 0.3 | B22 |
| 0.65 | B23 |

| ratio of amounts bound (vs GLS3000) | Binder |
| --- | --- |
| 0.24 | B24 |
| 0.18 | B25 |
| 0.89 | B26 |
| 0.24 | B27 |
| 0.34 | B28 |
| 2.17 | B29 |
| 0.31 | B30 |
| 0.64 | B31 |
| 0.84 | B32 |
| 0.23 | B33 |
| 0.24 | B34 |
| 0.59 | B35 |
| 0.23 | B36 |
| 0.19 | B37 |
| 0.94 | B38 |
| 0.3 | B39 |
| 0.5 | B40 |
| 0.39 | B41 |
| 0.59 | B42 |
| 1.02 | B43 |
| 0.3 | B44 |
| 0.24 | B45 |
| 0.22 | B46 |
